Data as given in the nanobody polyreactivity screen of Harvey et al. (2022).

Assay: yeast display, Sf9 membrane polyspecificity reagent, FACS + sequencing; frameworks hold sequencing errors
Summary of the method: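 A synthetic nanobody library was expressed on Saccharomyces cerevisiae BJ5465 by galactose induction for 36–48 hours. The library was stained for 1 hour at 4 °C with 10% biotinylated, detergent-solubilized Sf9 membrane reagent and enriched with streptavidin microbeads before FACS. Low and high (top ~1%) gates were set on anti-HA fluorescence for expression and streptavidin fluorescence for reagent binding, and each polyreactivity label reflects the gate of origin.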

Sequence	polyreactivity (PSR sort gate)
QVQLVESGGGLVQAGGSLRLICAASGSTFYPNAIGWYRQAPGKERELVAAISYTGGRTYYADSVKGRFTISRDNAKNTVYLQMNSLKPEDTAVYYCAVLVVGSTTQDEPYFCGVEHDYWGQGTQVTVSS	low polyreactivity
QVQLVESGGGLVQAGGSLRLICAASGSTFYWYMGWYRQAPGKERELVAAITSGGRTYYADSVKGRFTISRDNAKNTVYLQMNSLKPEDTAVYYCATTRRYAYRGGHNYWGQGTQVTVSS	high polyreactivity
QVQLVESGGGLVQAGGSLRLICAASGSTIAVYAIGWYRQAPGKERELVASISFSVVSTSYADSVKGRFTISRDNAKNTVYLQMNSLKPEDTAVYYCSTYYVRASYRYDYWGQGTQVTVSS	high polyreactivity
QVQLVESGGGLVQAGGSLRLICAASGSTLTSNSMGWYRQAPGKERELVASISRRGDSTNYADSVKGRFTISRDNAKNTVYLQMNSLKPEDTAVYYCVAYGYFQSNLWSEFDYWGQGTQVTVSS	low polyreactivity
QVQLVESGGGLVQAGGSLRLICAASGSTYDRNVLGWYRQEPGKERELVAAISRVSSTNYADSVKGRFTISRDNAKNTVYLQMNSLKPEDTAVYYCAADRAGSIMNYWGQGTQVTVSS	low polyreactivity
QVQLVESGGGLVQAGGSLRLICAASGTTFGRNAMGWYRQAPGKERELVDAIDSGASTYYADSVKGRFTISRDNAKNTVYLQMNSLKPEDTAVYYCGADVVYDYGGMDYWGQGTQVTVSS	low polyreactivity
QVQLVESGGGLVQAGGSLRLICAASGYIFPYYAIGWYRQAPGKERELVAGITTDGSSTYYADSVKGRFTISRDNAKNTVYLQMPSLKPEDTAVYYCYGYPGYTWGWYDYWGQGTQVTVSS	low polyreactivity
QVQLVESGGGLVQAGGSLRLICAASGYTFGGYAMGWYRQAPGKERVLVAAISTDGDSTFYADSVKGRFTISRDNAKNTVYLQMNSLKPEDTAVYYCAASVNTGSVTEYDYWGQGTQVTVSS	low polyreactivity
QVQLVESGGGLVQAGGSLRLICAASVSTFVRNAMGLYRQAPGKERELVAAISRSGGRTYYADSVKGRFTISRDNAKNTVYLQMNSLKPEDTSVYYCAADGKSVYDYWGQGTQVTVSS	high polyreactivity
QVQLVESGGGLVQAGGSLRLICAGSGLTFPYYTMGWYRQAPGEERELVAAISRRGGSTYYADSVKGRFTISRDNAKNTVYLQMNSLKPEDTAVYYCAADKYSWYDYWGQGTQVTVSS	low polyreactivity
QVQLVESGGGLVQAGGSLRLICASSGCTFGDYAMGWYRQEPGKERELVAAITIGGITTYADSVKGRFTISRDTAKYTVYLQRNSLKPEDTAVYYCAAAERGHWDDYWGQGTQVTVSS	low polyreactivity
QVQLVESGGGLVQAGGSLRLICAVSGHIFGSNAMGWYRQAPGKERELVAAIRSSGGSTYYADSVKGRFTISRDYAKNTVYLQMNSLKPEDTAVYYCAVETLTSTSLTRMDYWGQGTQVTVSS	low polyreactivity
QVQLVESGGGLVQAGGSLRLICDASGIIFYDYAMGWYRQAPGKERELVAAITSSGGSTYYADSVKGRFTISRDNAKNTVYLQMNSLKPEDTAVYYCAAATRGSGRRYDYWGQGTQVTLSS	high polyreactivity
QVQLVESGGGLVQAGGSLRLICDASGLTFGIYTMGWYRQAPAKESELVAAINWIGTRTYYADSVKGRFTISRDNAKNTVYLQMNSLKPEDTAVYYCATVIGYTKRKYDYWGQGTQVTVSS	high polyreactivity
QVQLVESGGGLVQAGGSLRLICDASGNTIIRYAMGWYRQGPGKERELVAAISYSGGRTYYADSVKGRFTISRDNAKNTVYLQMNSLKTEVTAVYYCNAASRYGCDYWRQGTQVTVSS	high polyreactivity
QVQLVESGGGLVQAGGSLRLICDASGRIFSFNAMGWSRQAPGKETELVAGITYGGNTYYADSVKGRFTISRDNANNTVYLQMNSLKPEDTAVYYCSAVRGVRHDYWGQGTQVTVSS	low polyreactivity
QVQLVESGGGLVQAGGSLRLICDAYVSTFYYYAMGWYRQAPGKVRELVAAISSGGSTNYADSVKGRFTISRDNAKNTVYLQMNILKPEDTAVYYCNAYSYWWLGYDYWGQGTQVTVSS	high polyreactivity
QVQLVESGGGLVQAGGSLRLICGASGLTSWYNAMGWYRQAPGKEREFVAAISFSGGRTFYADSVKGRFTISRDNAKNTVYLQMNSLKPEDTAVYYCNADVYGFDYWGQGTQVTVSS	high polyreactivity
QVQLVESGGGLVQAGGSLRLICSASGRIFSYNVMGWYRQAPGKEREVVAAITSNDGSTYYADSVKGRFTISRDNAKNTVYLQMNSLKPEDTAVYYCAAPYDYAEYYYWGQGTQVTVSS	low polyreactivity
QVQLVESGGGLVQAGGSLRLICSASGRTFAGYVMGWYRQAHGKERELVAAINASGGSTYYADSVKGRFTISRDNAKNTVYLQKNILKPEDTAVYYCAAARLGSDITRRYYYWGQGTQVTVSS	high polyreactivity
QVQLVESGGGLVQAGGSLRLICSASGSIFYRNVKRWSRQAPGKEREFVATISRGGTTNYADSVKGRITISRDNAKYTVYLQMNSLKPEDTAVYYCAAPIGVVYVGKGYDYWGQGTQVTLSS	low polyreactivity

Sequence	polyreactivity (PSR sort gate)
QVQLVESGGGLVQAGGSLRLIFAASGRIFRPNAMGWYRQAPGKEREFVAAITSSSGTTYYADSVKGRFTISRDNAKNTVYLQMNSLKPEDSAVYYCAAKYTSRSYKYDYWGQGTQVTVSS	high polyreactivity
QVQLVESGGGLVQAGGSLRLIGAASGRSLYVYEMGWYRQAPGNDRELVAAISRGGGRTYYADSVKRRFTISRDKAKNTVYVQRNSLKPEDTAVYYGAAPLLIGVSTYRIAPRSGYWGQGTQVTLSS	high polyreactivity
QVQLVESGGGLVQAGGSLRLISAASGRIFDLYTMGWYRQAPGKERELVAAIRWSHGSTYYADSVKGRFTISRDNAKNTVYLQMNSLKPEDTAVYYCAADTRTSYYNDDYDYWGQGTQVTVSS	low polyreactivity
QVQLVESGGGLVQAGGSLRLISAASGSTFDSYAMGWYRPAPGKERELVAAITRSVGSTYYADSVKGRFTISRDNAKNTVYLHMNSVKPEVTAVYYCAARGEWAIYVEFDYWGQGTQVTVSS	low polyreactivity
QVQLVESGGGLVQAGGSLRLISAASGSTIIRNAMGWYRQAPGKERELVAAISTSGGRTHYADSVKGRFTISRDNAKTTVYLQMNSLKPEDTAVYDCAASNGYQAVTYDYWGQGTQVTVSS	high polyreactivity
QVQLVESGGGLVQAGGSLRLNCAASGSTFFGNAMGWYRQAPGKERELVAAISGSGGSTYYADSVKGRFTISRDNAKNTVYLQMNSLKPEDTAVYYCAKYYLTGLARYDYWGQGTQVTVSS	high polyreactivity
QVQLVESGGGLVQAGGSLRLNCSAYGSTFFDYVMGWYRQAPGKERDLVAAITRGGSSNYADSVKGRFTISRDNAKNTVYLQMNRLKPEDTAVYYCNAKRDKGFYWWYNYWGQGNQVTVSS	high polyreactivity
QVQLVESGGGLVQAGGSLRLNSAASGSIFYRYAMRWYRQAPGKERELVAAISSNGGRTYYADSVKGRFTISRDNSKNTVYLQMNSLKPEDTAVYYCATLPGYSMDYWGQGTQVTVSS	high polyreactivity
QVQLVESGGGLVQAGGSLRLRCAASGFIFDYYAMGWYRQAPGKEWELVAGISWSGGSTYYADSVKGRFTISRDNAKNTVYLQMNSLKPEDTAVYYCATDDYLVIFEYDYWGQGTQVTVSS	low polyreactivity
QVQLVESGGGLVQAGGSLRLRCAASGFIFGRYTMGWYRQAPGKERELVAAISSRGGSTYYADSVKGRFTISRDNAKNTVYLQMNSLKPEDTAVYYCAADEIYCYDYWGQGTQVTVSS	high polyreactivity
QVQLVESGGGLVQAGGSLRLRCAASGFIFRHNAMGWYRQAPGKAREFVAAISISGGSTYYADSVKGRFTISRDNAKNTVYLQMNSLKPEDTAVYYCNARSMGNTYLLYDYWGQGTQVTFSS	low polyreactivity
QVQLVESGGGLVQAGGSLRLRCAASGFIFVAYAMGWYIQAPGKERELVAAISWSGGSTYADSVKGRFTISRHNAKNTVYLQMNSLKPEDTAVYYCDARTSPIKTNNWYSQRYDSWGQGTQVTVSS	low polyreactivity
QVQLVESGGGLVQAGGSLRLRCAASGFIYLKYDMGWYRQAPGKERELVDRITSTGGSTYYADSVKGRFTISRDNAKNTVYLQMNSLKPEDTAVYYCAAVYISRNFFGRARGDYWGQGTQVTVSS	low polyreactivity
QVQLVESGGGLVQAGGSLRLRCAASGFTFFAYALGWYRQAPGKESELVAGISRSGGRTYYADSVKWRFTISRDNAKNTVYLQMNSLKPEDTAVYYCAAGIPVTSRHLGYWGQGTQVTVSS	high polyreactivity
QVQLVESGGGLVQAGGSLRLRCAASGFTFGAYAMGWYRQAPGKERELVATIDWRGSSTYYADSVKGRFTISRDNAKNTVYLQMNSLKPEDTAVYYCAARLARGSYAYEYWGQGTQVTVSS	low polyreactivity
QVQLVESGGGLVQAGGSLRLRCAASGFTFRFYAMGWYRQAPGKERELVAAISSTGIRTYYADSVKGRFTISRDNAKNTVYLQMNSLKPEDTAFYYCAILHRDSILDYWGQGTQVTVAS	high polyreactivity
QVQLVESGGGLVQAGGSLRLRCAASGFTFTRYAMGWYRQAPGKERELVAVITSTAGSTYYADSVKGRFTISRDNAKNTVYLQMNSLKPEDTAVYYCAAESLVHGDVTLEEVVAQSYDYWGQGTQVTVSS	low polyreactivity
QVQLVESGGGLVQAGGSLRLRCAASGGIFGRYAMGWNRQAPGKERELVAAISSRGGSTYYADSVKGRFTISRDNAKNTVYLQMNSLKPEDTAVYYCNALWVSYYTFRMDYWGQGTQVTVSS	high polyreactivity
QVQLVESGGGLVQAGGSLRLRCAASGIIFEYYAMGLYRQAPGKERELVAAITRGGTTYYADSVKGRFTISRDNAKNTVYLQMNSLKPEDTAVYYCNADSVAYGDEYDFWGQGTQVTVSS	low polyreactivity
QVQLVESGGGLVQAGGSLRLRCAASGITFKTYAMGWYRQAPGKERELVATINRGSRTNYADSVKGRFTISRDNAKNTVYLKMNSLKPEDTAVYYCAAHYTTFIPSPDGDYLGQGTQVTVSS	low polyreactivity
